According to the supplement of paper PMC12042874:
± gives the uncertainty stated by the source.

Experiment: amyloid nucleation score (Sup35N fusion, yeast selection) (log enrichment); library NNK2; higher = more nucleation; inactive = no reads after selection
Summary of the method: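 For the nucleation score, DiMSum gave the log enrichment of output over input reads, centred on the mode score of non-aggregating sequences. Psi-negative yeast expressing Sup35N fused to peptides of 20 random codons were induced with 100 μM copper sulfate for 24 hours and grown 7 days at 30°C on medium lacking adenine and uracil. Input and output plasmid inserts were Illumina-sequenced, and sequences with under 100 input reads were excluded.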

Substance | amyloid nucleation score
RSGVESHRRKVPLVPMGVTV | 1.16 ± 0.36
RSKQRCGTTDSPLAMVSKRV | 1.05 ± 0.31
RSKVYTWR | 3.23 ± 0.071
RSLIKSRVIWGRKCSSRFIR | -0.64 ± 0.32
RSNRYGRDWNGVGTKWLFHD | -0.395 ± 0.45
RSQSSYRIVQWIMYTCDNVL | inactive
RSSASRNQFKESCFRAHQFP | -0.339 ± 0.27
RSSCRRNSYLRQLVMSLVRY | -0.105 ± 1.1
RSSRYLLPFNGGTPFYDSR | -0.284 ± 1.1
RSSVWGMRELIERKNTSGAW | 1.49 ± 0.19
RSTDLVSIFRMDLAIRINVL | 0.815 ± 0.13
RSVFDLMPRLYDYATNHLSY | -0.057 ± 0.34
RSYDQVRSCHARMREDSNVQ | 4.61 ± 0.066
RSYSGVFT | -0.926 ± 0.48
RTHWELRKNLLCPFVDKIY | -1.2 ± 0.78
RTIANDWHSCFSGRNLHSSW | 0.808 ± 0.74
RTIVFTLWRDGITKFMVNRD | 0.452 ± 0.43
RTLNGADFS | 0.486 ± 0.8
RTMLSGLLGYRSRSLADSPF | -0.199 ± 0.76
RTPSCSL | -0.916 ± 1
RTVEWRDNYLLGRILLFNPV | -0.187 ± 0.55

Substance | amyloid nucleation score
RVDKGVEFSSTSGSVRNFSL | -0.83 ± 1.1
RVEGFRFYFEVRLGSVSRKL | -0.42 ± 0.76
RVERLWVLHSKATQRRM | 0.063 ± 0.79
RVIDLVTCKAHSGWSVLGYM | -0.402 ± 0.37
RVLFHSSFGRGLVCEISVHV | -1.01 ± 0.62
RVLSIRSFP | 1.64 ± 0.13
RVQAGFIRAGCNIEARKFSG | -0.48 ± 0.28
RVRGGEYRRSYTKWWEGCGS | 3.19 ± 0.091
RVRIVPDCFNVAACGGWYMD | -0.062 ± 0.45
RVRLTRSSSCPNSVSFCGVA | 1.29 ± 0.24
RVSGNCIYTKWCVFPVGNLL | -1.12 ± 0.76
RVSQDSVAGRRSLFMKFVGG | 6.022 ± 0.042
RVSVDTWQAYMAICWSYVGL | 0.915 ± 0.23
RVTKSVKLGPEFMLNHGRLT | 3.33 ± 0.061
RVVVTEKKLPCLGQGTIVPT | 0.03 ± 0.35
RVYSLNSRWYSLPG | 0.016 ± 0.76
RWFDRV | 0.664 ± 0.31
RWFFEQDIIYLSRVRGDFRV | inactive
RWIYLGYSLCLDVLLYCIEL | 4.07 ± 0.06
RWMLIAE | 1.03 ± 0.31
RWNGSKLRY | 0.009 ± 0.76

Substance | amyloid nucleation score
RWVWDGPLYMLFSCMCYIKR | 6.484 ± 0.064
RWYILILGFRGKIIYPFRLG | 0.157 ± 1
RWYSPWSWY | 0.662 ± 0.36
RYFDWYNI | -1.28 ± 0.45
RYGGRMAMRINYISIMSADY | 0.138 ± 0.47
RYGLLYSTSLACWFGS | 4.36 ± 0.058
RYHVRMKISCRF | 2.74 ± 0.11
RYISYITSVSESRQGNRPYG | -0.446 ± 0.28
RYLCSRVVMSYTCARTPETG | 0.43 ± 0.35
RYLVLVLLGHINCARYYTLN | -0.114 ± 1.1
RYPVESCVHSFLESRVRDQG | 0.881 ± 0.45
RYRFVIMDDLIIMNAFNSIE | 4.48 ± 0.12
RYTYRHNVFTNMSLVYNTMP | 2.88 ± 0.11
RYYKCVLVWRHQGDSHIRAT | -0.412 ± 0.63
SAATPCVY | 0.778 ± 0.25
SACWEGGSSFVIKGKTRLFG | 1.94 ± 0.19
SAFVSVCVSDRDRMGCYYSS | inactive
SAFVVQFVK | -0.31 ± 0.42
SALHLYGFFLRFFERSSVIL | -0.608 ± 0.76
SALPDSTNRIASVGGISPGS | 0.489 ± 0.46
SAQNDEKFLDPVSVIPRCKS | 0.443 ± 0.56

Substance | amyloid nucleation score
SAYLPSHLYTAFEPHGLVST | 0.933 ± 0.2
SCCISPVSVIMRPSY | 3.79 ± 0.1
SCCLLPKYELRIIYCASRRK | -0.324 ± 1.1
SCDWRAGPSSATRTR | 1.24 ± 0.35
SCFIFSCYDTSLQMLVFAVG | -0.591 ± 0.63
SCGMFESPAVYGYSARLSRL | inactive
SCHSFRFKPNGFVL | -0.575 ± 0.49
SCKNMGHVWFIVDVHHNRRL | inactive
SCLSSFELVL | -0.694 ± 1.1
SCMYIFLFLNSNIQLIVWDV | -0.137 ± 1.1
SCNDANILSMSVVWVLRTGE | 3.12 ± 0.13
SCQENICENWFWLLHD | -0.321 ± 0.45
SCVSTYDFNSIR | -0.484 ± 0.25
SCVYLDCLF | 0.25 ± 0.6
SCWYKRWTPCSRDYDSFYIA | 2.72 ± 0.09
SDAVFFLLSNGNRPPRAAMS | 0.155 ± 0.29
SDDWIDYRCNPGRGSKEAMA | 4.6 ± 0.098
SDGNELDWIAGLTMYRGVER | 0.319 ± 0.8
SDLRRCM | 0.277 ± 0.21
SDSDLPGFRREGNRIRVWLG | 0.312 ± 0.49
SDSNSCGEFARISYMGKWCE | 0.705 ± 0.8
